In paper PMC3387196:

Molecular target: Nedd4 (UniProt P46935)
Assay: anti-FLAG co-IP, Ala mutants
Conditions: reference: wild type; sites T1859,S1962

Substance: Kif26b (from UniProt Q7TNC6) T1859A/S1962A
- binding against the reference: weaker
